# Laboratory results published in publication PMC8473235.
# System: GST-VPg (Tulane virus) (Tulane virus)
# Experiment: ELASA
row,Sequence,binding signal (positive:negative absorbance ratio)
1,AGTATACGTATTACCTGCAGCTGTCGATAAAGTGAGTTAAGTCACCGGCCCGGCCTATTCGCGATATCTCGGAGATCTTGC [N11-2],> 10
2,AGTATACGTATTACCTGCAGCTGGAAGGCGGGAAGATTTTTGGTCGACCTGACAACCCGGTCGATATCTCGGAGATCTTGC [T9],> 10
3,AGTATACGTATTACCTGCAGCTAGTAACGATTACCAAAATTCTCCCGAGGCTGACAACCCGCGATATCTCGGAGATCTTGC [T1-2],> 10
4,AGTATACGTATTACCTGCAGCCGGGTCTCGTCTATGCAGTACTCAAAACGCTTGAGGTACCGACGATATCTCGGAGATCTTGC [N1-2],> 10
5,AGTATACGTATTACCTGCAGCAGGGATGTGTTGGATGCATGCCAGGCTTGGTAACATTGTACGATATCTCGGAGATCTTGC [N3],> 10
6,AGTATACGTATTACCTGCAGCTCGAGGTATGGCCTTGTCTAGGCGCACCTGACAACCCGGTGCGATATCTCGGAGATCTTGC [T9-2],> 10
7,AGTATACGTATTACCTGCAGCAAGGCTTTTTTAAAGGCTAGGCTTGATAATCGGTTAACTCCGATATCTCGGAGATCTTGC [N4-2],> 10
8,AGTATACGTATTACCTGCAGCTCACACTCGTTTCTATTACTAAAACATCGTTCCTTTCAGCCGATATCTCGGAGATCTTGC [T5 (= N12-2)],> 10
9,AGTATACGTATTACCTGCAGCTGTCGTTAATTATTCGTGATCTGACAACCCGATCACTCTCCGATATCTCGGAGATCTTGC [T10-2],> 10
10,AGTATACGTATTACCTGCAGCCAGAGTTGATGTAAGCTTCGTGTTAGCTCAACTCTTATCGCGATATCTCGGAGATCTTGC [N6],> 10
11,AGTATACGTATTACCTGCAGCTCTTCGGTTTAATAAAGTTGGCTAGGAAAGTTTAAAACCGCGATATCTCGGAGATCTTGC [N13],> 5
12,AGTATACGTATTACCTGCAGCAGTGGGTGGTGATGAATTCTGGTCGCGCTGACAACCCGCGCGATATCTCGGAGATCTTGC [N14],> 10
